Data taken from US20250171542A1 (ADEPT THERAPEUTICS, published 2025).
Changes are numbered by the printed parent chain. Each block holds one binder with its values, some of them ahead of it.

Assays:
[1] = biological target: T1, rat PD-L1 (Sino Biological, Cat #80450-R08H) (rat, UniProt D4AE25 19-239); assay: ELISA
T1 construct: not shown: The vendor's polyhistidine tag

[2] = biological target: T2, canine PD-L1 (Acro Biosystems, Cat #PDL-C52H4) (canine, UniProt E2RKZ5 19-236); assay: ELISA
T2 construct: not shown: The vendor's tag, probably a polyhistidine tag
T2 sequence: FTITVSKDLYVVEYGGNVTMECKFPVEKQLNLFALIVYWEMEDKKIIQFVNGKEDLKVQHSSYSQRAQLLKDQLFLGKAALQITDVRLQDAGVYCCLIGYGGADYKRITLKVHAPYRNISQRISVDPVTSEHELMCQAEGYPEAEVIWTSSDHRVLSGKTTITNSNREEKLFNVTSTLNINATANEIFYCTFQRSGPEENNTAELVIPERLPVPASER

[3] = biological target: T3, CD80 (Sino Biological, Cat #10698-H08H) (UniProt P33681 35-242); assay: ELISA
T3 sequence (looked up): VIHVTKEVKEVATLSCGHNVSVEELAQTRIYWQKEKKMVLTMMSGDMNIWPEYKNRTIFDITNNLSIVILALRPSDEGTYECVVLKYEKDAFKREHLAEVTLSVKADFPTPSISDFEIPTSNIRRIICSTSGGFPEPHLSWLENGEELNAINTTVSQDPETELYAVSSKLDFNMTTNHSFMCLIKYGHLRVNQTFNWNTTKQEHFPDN

[4] = biological target: T4, CD86 (Sino Biological, Cat #10699-H08H) (UniProt P42081 24-245); assay: ELISA
T4 sequence (looked up): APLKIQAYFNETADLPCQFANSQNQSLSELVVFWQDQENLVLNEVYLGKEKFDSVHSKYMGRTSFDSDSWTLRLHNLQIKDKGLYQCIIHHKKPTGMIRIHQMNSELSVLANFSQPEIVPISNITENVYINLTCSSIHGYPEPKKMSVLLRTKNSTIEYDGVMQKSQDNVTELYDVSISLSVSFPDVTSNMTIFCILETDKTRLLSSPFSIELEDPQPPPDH

[5] = biological target: T5, BH-H2 (Sino Biological, Cat #11559-H08H) (UniProt O75144 19-258); assay: ELISA
T5 sequence (looked up): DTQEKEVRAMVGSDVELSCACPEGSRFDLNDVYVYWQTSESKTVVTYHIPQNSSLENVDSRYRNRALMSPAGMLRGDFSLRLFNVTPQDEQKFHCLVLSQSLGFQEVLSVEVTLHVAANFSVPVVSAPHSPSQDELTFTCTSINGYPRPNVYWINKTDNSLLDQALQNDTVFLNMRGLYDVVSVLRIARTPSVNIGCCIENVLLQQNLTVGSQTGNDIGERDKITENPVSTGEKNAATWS

[6] = biological target: T6, B7-H3 (Sino Biological, Cat #11188-H08H) (UniProt Q5ZPR3 29-461); assay: ELISA
T6 sequence (looked up): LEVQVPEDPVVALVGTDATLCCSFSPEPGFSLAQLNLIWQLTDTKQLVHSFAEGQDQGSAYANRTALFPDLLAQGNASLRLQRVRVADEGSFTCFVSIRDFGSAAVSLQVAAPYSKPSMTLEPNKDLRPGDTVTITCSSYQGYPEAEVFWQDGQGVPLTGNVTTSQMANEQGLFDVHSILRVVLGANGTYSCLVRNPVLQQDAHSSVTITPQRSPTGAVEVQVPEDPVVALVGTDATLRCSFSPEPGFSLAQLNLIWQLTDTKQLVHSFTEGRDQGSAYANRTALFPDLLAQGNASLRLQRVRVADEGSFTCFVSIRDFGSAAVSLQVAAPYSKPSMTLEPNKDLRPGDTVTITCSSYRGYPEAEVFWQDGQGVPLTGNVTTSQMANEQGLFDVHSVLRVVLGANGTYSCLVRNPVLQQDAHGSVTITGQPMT

[7] = biological target: T7, PD-L2 (Sino Biological, Cat #10292-H08H) (UniProt Q9BQ51 20-219); assay: ELISA
T7 sequence (looked up): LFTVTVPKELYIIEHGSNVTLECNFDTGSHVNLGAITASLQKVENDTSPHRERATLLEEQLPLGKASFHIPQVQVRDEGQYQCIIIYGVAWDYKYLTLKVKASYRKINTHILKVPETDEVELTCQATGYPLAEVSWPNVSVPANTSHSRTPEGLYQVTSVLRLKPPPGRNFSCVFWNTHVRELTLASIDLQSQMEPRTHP

[8] = biological target: human PD-L1 expressed on cell surface (human, UniProt Q9NZQ7 19-290); assay: cell-based or functional assay
[9] = biological target: T8, human PD-L1-His (Sino Biological, Cat #10084-H08H) (human, UniProt Q9NZQ7 19-238); assay: ELISA, coated human PD-L1-His
T8 construct: Bought protein; also called human PD-L1 ECD-His; recombinant human PD-L1-His protein; not shown: His tag
Description: Briefly, Maxisorp plates (Nunc) were coated with 100 ul/well of 0.5 μg/ml human PD-L1-His (Sino Biological, Cat #10084-H08H) or cynomolgus PD-L1-His (Sino Biological, Cat. 90251-C08H) protein diluted in 1×PBS (GIBCO) overnight at 4° C. Plates were washed three times with 300 μl/well washing buffer (1×PBST, diluted from 20×PBST (Thermo Scientific) with distilled water)) and then blocked with 300 μl/well of blocking buffer (1×PBST/I % BSA) for 2 hours at RT on shaker (100 rpm). Plates were washed and added with 100 μl/well of testing antibodies, which were serial diluted with assay buffer (PBST/1% BSA). The antibodies were incubated at room temperature for 2 hours on plate shaker at 100 rpm. Plates were washed. One hundred microliter of horseradish peroxidase (HRP) conjugated detection antibody was added into each well and incubated at room temperature for 1 hour on plate shaker at 100 rpm. Plates were washed and added with 100 μl/well TMB substrate for color development at room temperature in dark for up to 10 minutes. After addition of 50 μl/well of stop solution (1N H₂SO₄), plates were read at 450 nm on a plate reader (SpectraMax M5).
Anti-HEL isotype control (Biolntron) was used as negative control.

[10] = biological target: T9, cynomolgus PD-L1-His (Sino Biological, Cat. 90251-C08H) (cynomolgus, UniProt Q9NZQ7 19-238 (human entry)); assay: BLI (Gator), cynomolgus PD-L1
T9 construct: Bought protein; also called Cyno PD-L1; Cynomolgus PD-L1 ECD-His; not shown: His tag
T9 sequence (Q9NZQ7 other isoform, or with tags, fused parts or gaps C08H C08H limits assumed): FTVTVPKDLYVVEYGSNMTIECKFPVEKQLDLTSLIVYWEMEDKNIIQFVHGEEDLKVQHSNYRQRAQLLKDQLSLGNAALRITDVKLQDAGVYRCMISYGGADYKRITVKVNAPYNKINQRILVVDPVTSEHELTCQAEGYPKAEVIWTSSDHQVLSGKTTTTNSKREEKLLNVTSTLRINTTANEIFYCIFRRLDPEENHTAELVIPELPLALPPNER

human PD-L1 expressed on cell surface, sequence (Q9NZQ7 19-290 limits assumed): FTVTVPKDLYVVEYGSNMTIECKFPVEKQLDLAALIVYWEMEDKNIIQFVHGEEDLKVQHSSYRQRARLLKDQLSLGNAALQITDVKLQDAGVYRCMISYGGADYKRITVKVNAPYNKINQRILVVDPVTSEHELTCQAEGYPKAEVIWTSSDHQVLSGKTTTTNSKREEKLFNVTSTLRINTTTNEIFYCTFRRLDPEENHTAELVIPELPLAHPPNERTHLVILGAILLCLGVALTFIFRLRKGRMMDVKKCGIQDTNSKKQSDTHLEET
T1 sequence (D4AE25 entry or part of it R08H R08H limits assumed): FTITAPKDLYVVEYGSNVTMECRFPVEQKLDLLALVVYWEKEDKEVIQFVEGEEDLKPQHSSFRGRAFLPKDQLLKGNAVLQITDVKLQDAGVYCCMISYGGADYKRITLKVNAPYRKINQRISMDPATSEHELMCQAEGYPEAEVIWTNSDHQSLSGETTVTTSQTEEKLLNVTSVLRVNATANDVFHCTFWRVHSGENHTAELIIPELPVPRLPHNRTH
T8 sequence (Q9NZQ7 19-238): as the sequence (Q9NZQ7 other isoform, or with tags, fused parts or gaps C08H C08H limits assumed) above, with T33A, S34A, N62S, Q68R, R82Q, L173F, A185T, I192T, L215H counted along it

binding result [1]: no binding
binding result [2]: no binding
binding result [3]: no binding
binding result [4]: no binding
binding result [5]: no binding
binding result [6]: no binding
binding result [7]: no binding
Internalization (%), FACS, 0.25 µg/ml, 2 h [8]: 19.3%
Internalization (%), FACS, 0.25 µg/ml, 4 h [8]: 16.5%
Internalization (%), FACS, 0.5 µg/ml, 2 h [8]: 11.1%
Internalization (%), FACS, 0.5 µg/ml, 4 h [8]: 21.7%
Internalization (%), FACS, 1 µg/ml, 2 h [8]: 12.7%
Internalization (%), FACS, 1 µg/ml, 4 h [8]: 15.6%
Internalization (%), FACS, 2 µg/ml, 2 h [8]: 19.2%
Internalization (%), FACS, 2 µg/ml, 4 h [8]: 22.1%
EC50 [9]: 0.0186 nM
Kd [10]: 0.03 nM
koff [10]: 7e-06 s⁻¹
kon [10]: 284000 M⁻¹ s⁻¹
B1: 57B10 (antibody, human IgG1, V domains shown)
VH: QEQLEESGGGLVQPEGSLTLTCTASGFSFSDDYYMSWVRQAPGKGLEWIASIYTGSLNTYYATWAKGRFTISLTSSTTVTLQMTSLTAADTATYFCARRNKNADWGHFDLWGPGTLVTVSS
VL: YDMTQTPASVEVAVGGTVTIKCQASQSISTALAWYQQKPGQPPKLLIYAASTLASGVPSRFRGSGSGTDFTLTISDLECADAATYYCQQGWTVSSLDNAFGGGTEVVAM

binding result [1]: no binding
binding result [2]: no binding
binding result [3]: no binding
binding result [4]: no binding
binding result [5]: no binding
binding result [6]: no binding
binding result [7]: no binding
Internalization (%), FACS, 0.25 µg/ml, 2 h [8]: 22.3%
Internalization (%), FACS, 0.25 µg/ml, 4 h [8]: 21%
Internalization (%), FACS, 0.5 µg/ml, 2 h [8]: 12.2%
Internalization (%), FACS, 0.5 µg/ml, 4 h [8]: 24%
Internalization (%), FACS, 1 µg/ml, 2 h [8]: 16.4%
Internalization (%), FACS, 1 µg/ml, 4 h [8]: 17.7%
Internalization (%), FACS, 2 µg/ml, 2 h [8]: 16.1%
Internalization (%), FACS, 2 µg/ml, 4 h [8]: 17.9%
EC50 [9]: 0.024 nM
kon [10]: 313000 M⁻¹ s⁻¹
B2: 62E6 (antibody, human IgG1, V domains shown)
VH: B1 VH with G10D, Q13K, D31G, T59I, W105Y
VL: B1 VL with S29N, T30D, A31R, G40R, A49G, R62K, D69E, A80V, M109K

binding result [1]: no binding
binding result [2]: no binding
binding result [3]: no binding
binding result [4]: no binding
binding result [5]: no binding
binding result [6]: no binding
binding result [7]: no binding
Internalization (%), FACS, 0.25 µg/ml, 2 h [8]: 18.2%
Internalization (%), FACS, 0.25 µg/ml, 4 h [8]: 15.9%
Internalization (%), FACS, 0.5 µg/ml, 2 h [8]: 16.2%
Internalization (%), FACS, 0.5 µg/ml, 4 h [8]: 18%
Internalization (%), FACS, 1 µg/ml, 2 h [8]: 15.9%
Internalization (%), FACS, 1 µg/ml, 4 h [8]: 18.2%
Internalization (%), FACS, 2 µg/ml, 2 h [8]: 17.7%
Internalization (%), FACS, 2 µg/ml, 4 h [8]: 21.2%
EC50 [9]: 0.0215 nM
Kd [10]: 0.18 nM
koff [10]: 7.7e-05 s⁻¹
kon [10]: 428000 M⁻¹ s⁻¹
B3: 69D10 (antibody, human IgG1, V domains shown)
VH: B1 VH with D31G, Y33W, T54S, I71V, W105Y
VL: B1 VL with S29G, T30N, A50T, R62K, D69E, A80G, M109K

binding result [1]: no binding
binding result [2]: no binding
binding result [3]: no binding
binding result [4]: no binding
binding result [5]: no binding
binding result [6]: no binding
binding result [7]: no binding
Internalization (%), FACS, 0.25 µg/ml, 2 h [8]: 17.9%
Internalization (%), FACS, 0.25 µg/ml, 4 h [8]: 21.3%
Internalization (%), FACS, 0.5 µg/ml, 2 h [8]: 19.7%
Internalization (%), FACS, 0.5 µg/ml, 4 h [8]: 14.7%
Internalization (%), FACS, 1 µg/ml, 2 h [8]: 16.7%
Internalization (%), FACS, 1 µg/ml, 4 h [8]: 16.8%
Internalization (%), FACS, 2 µg/ml, 2 h [8]: 14.5%
Internalization (%), FACS, 2 µg/ml, 4 h [8]: 15.4%
EC50 [9]: 0.0216 nM
Kd [10]: 0.27 nM
koff [10]: 0.000101 s⁻¹
kon [10]: 373000 M⁻¹ s⁻¹
B4: 57F11 (antibody, human IgG1, V domains shown)
VH: B1 VH with Q3H, S17A, D31G, L73I, T74A, M83V, N100T, A103G, W105Y, H107Y
VL: B1 VL with S29N, T30D, A31R, R62K, D69E, D97E, M109K
